Measurements published in paper PMC4999498.

Legend:
[1] = phospho-S243 immunoblot, anti-IgM-stimulated Ramos; conditions: glycan lost; control: WT Lsp1
[2] = phospho-S243 immunoblot, anti-IgM-stimulated splenic B cells; conditions: glycan gained; control: no TG

B1: lymphocyte-specific protein-1 (Lsp1, mLsp1): S209A (protein)
parent chain: MAEAAIDPRCEEQEELHAEDSEGLTTQWREEDEEEAAREQRQRERERQLQDQDKDKEDDGGHSLEQPGQQTLISLKSSELDEDEGFGDWSQKPEPRQQFWGNEGTAEGTEPSQSERPEEKQTEESSHQAKVHLEESNLSYREPDPEDAVGGSGEAEEHLIRHQVRTPSPLALEDTVELSSPPLSPTTKLADRTESLNRSIKKSNSVKKSQPTLPISTIDERLQQYTQATESSGRTPKLSRQPSIELPSMAVASTKTLWETGEVQSQSASKTPSCQDIVAGDMSKKSLWEQKGGSKISSTIKSTPSGKRYKFVATGHGKYEKVLVDEGSAP
[1]
  other: phosphorylation at S243: decreases

B2: lymphocyte-specific protein-1 (Lsp1, mLsp1): thiamet-G (TG) (protein)
parent chain: B1 parent chain
[2]
  other: phosphorylation at S243: increases
